According to paper PMC4974525:

Molecular target: African cassava mosaic virus (ACMV) capsid protein expressed in fission yeast (African cassava mosaic virus (ACMV-[Nigeria-Ogo]))
Experiment: SDS-PAGE with Western blot

Substance: African cassava mosaic virus (ACMV) capsid protein expressed in fission yeast (natural protein)
- stoichiometry N: 2
